Test results reported in the supplement of paper PMC9112550, “Optimization of the antimicrobial peptide Bac7 by deep mutational scanning” (BMC Biology, 2022).

Test system: Escherichia coli TOP10
Assay: shrunken log2 fold change of peptide-encoding DNA abundance (4.5 h post-induction vs induction); higher = less antimicrobial activity (less host growth inhibition)
Settings: time post-induction: 4.5 h; library: site-saturation at positions 5, 18, 19, 20
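Also: peptides expressed intracellularly from a pBAD plasmid library in pooled LB shake-flask culture, induced with 0.3% L-arabinose, DNA abundance read by NGS, three biological replicates, DESeq2 with apeglm shrinkage.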

Sequence	shrunken log2 fold change
RRIRQRPPRLPRPRPRPGFVPRP	0.217
RRIRGRPPRLPRPRPRPFRSPRP	-0.599
RRIRARPPRLPRPRPRPYAPPRP	0.162
RRIRHRPPRLPRPRPRPPIPPRP	-0.11
RRIRERPPRLPRPRPRPRNPPRP	-0.0856
RRIRGRPPRLPRPRPRPGKPPRP	0.516
RRIRGRPPRLPRPRPRPAWIPRP	0.347
RRIRVRPPRLPRPRPRPDAIPRP	0.286
RRIRKRPPRLPRPRPRPMAQPRP	-0.0932
RRIRFRPPRLPRPRPRPWKFPRP	0.0664
RRIRRRPPRLPRPRPRPNSCPRP	-0.0116
RRIRERPPRLPRPRPRPIWWPRP	-0.0447
RRIRRRPPRLPRPRPRPVGTPRP	0.018
RRIRGRPPRLPRPRPRPHFWPRP	0.428
RRIRFRPPRLPRPRPRPARTPRP	0.332
RRIRMRPPRLPRPRPRPSYGPRP	-0.0196
RRIRMRPPRLPRPRPRPFFDPRP	0.232
RRIRMRPPRLPRPRPRPCEMPRP	0.084
RRIRRRPPRLPRPRPRPRKWPRP	0.319
RRIRDRPPRLPRPRPRPLVCPRP	0.22
RRIRWRPPRLPRPRPRPFFHPRP	-0.194
RRIRGRPPRLPRPRPRPNWEPRP	0.21
RRIRGRPPRLPRPRPRPQKTPRP	-0.0351
RRIRTRPPRLPRPRPRPKCCPRP	-0.133
RRIRVRPPRLPRPRPRPQCSPRP	-0.18

Sequence	shrunken log2 fold change
RRIRSRPPRLPRPRPRPEVGPRP	0.726
RRIRQRPPRLPRPRPRPCHLPRP	-0.0134
RRIRARPPRLPRPRPRPWSEPRP	0.0573
RRIRARPPRLPRPRPRPENFPRP	0.0336
RRIRNRPPRLPRPRPRPHRLPRP	-0.00303
RRIRWRPPRLPRPRPRPRSKPRP	0.118
RRIRYRPPRLPRPRPRPAAQPRP	0.466
RRIRYRPPRLPRPRPRPRNLPRP	-0.036
RRIRRRPPRLPRPRPRPRPHPRP	1.6
RRIRFRPPRLPRPRPRPWVGPRP	-0.0721
RRIRKRPPRLPRPRPRPVECPRP	0.22
RRIRLRPPRLPRPRPRPYCTPRP	1.26
RRIRGRPPRLPRPRPRPESAPRP	1.67
RRIRRRPPRLPRPRPRPDDQPRP	0.167
RRIRFRPPRLPRPRPRPHGDPRP	0.0644
RRIRARPPRLPRPRPRPISTPRP	-0.295
RRIRSRPPRLPRPRPRPYRRPRP	-0.0841
RRIRKRPPRLPRPRPRPLEYPRP	-0.123
RRIRARPPRLPRPRPRPRGSPRP	0.708
RRIRQRPPRLPRPRPRPETCPRP	0.0408
RRIRFRPPRLPRPRPRPVLEPRP	0.00555
RRIRKRPPRLPRPRPRPSLEPRP	0.286
RRIRARPPRLPRPRPRPCDLPRP	0.15
RRIRARPPRLPRPRPRPQNPPRP	0.0626
RRIRIRPPRLPRPRPRPSCYPRP	-0.392

Sequence	shrunken log2 fold change
RRIRGRPPRLPRPRPRPDCWPRP	1.58
RRIRVRPPRLPRPRPRPCAPPRP	-0.22
RRIRERPPRLPRPRPRPVEQPRP	-0.209
RRIRRRPPRLPRPRPRPVYCPRP	-0.0322
RRIRVRPPRLPRPRPRPEVKPRP	0.0366
RRIRLRPPRLPRPRPRPERAPRP	0.705
RRIRWRPPRLPRPRPRPPFEPRP	0.765
RRIRFRPPRLPRPRPRPVLDPRP	-0.474
RRIRERPPRLPRPRPRPFPLPRP	-0.134
RRIRYRPPRLPRPRPRPEQLPRP	-0.0122
RRIRCRPPRLPRPRPRPLFQPRP	-0.417
RRIRSRPPRLPRPRPRPVDEPRP	-0.216
RRIRTRPPRLPRPRPRPAALPRP	0.0806
RRIRLRPPRLPRPRPRPEWDPRP	0.273
RRIRCRPPRLPRPRPRPQLTPRP	-0.147
RRIRGRPPRLPRPRPRPREYPRP	0.355
RRIRQRPPRLPRPRPRPWKFPRP	0.0543
RRIRIRPPRLPRPRPRPKMMPRP	-0.596
RRIRIRPPRLPRPRPRPYTLPRP	-0.478
RRIRRRPPRLPRPRPRPFTIPRP	0.0518
RRIRTRPPRLPRPRPRPTLMPRP	-0.142
RRIRLRPPRLPRPRPRPVEEPRP	0.21
RRIRPRPPRLPRPRPRPDCRPRP	-0.0347
RRIRTRPPRLPRPRPRPMPHPRP	0.182
RRIRHRPPRLPRPRPRPACDPRP	0.285

Sequence	shrunken log2 fold change
RRIRPRPPRLPRPRPRPECHPRP	-0.0419
RRIRFRPPRLPRPRPRPTKDPRP	-0.196
RRIRGRPPRLPRPRPRPHREPRP	0.121
RRIRVRPPRLPRPRPRPHKDPRP	-0.36
RRIRCRPPRLPRPRPRPKNEPRP	-0.1
RRIRRRPPRLPRPRPRPHHQPRP	-0.086
RRIRDRPPRLPRPRPRPTMMPRP	0.338
RRIRTRPPRLPRPRPRPPHVPRP	0.307
RRIRPRPPRLPRPRPRPDSFPRP	-0.0889
RRIRPRPPRLPRPRPRPKDSPRP	-0.157
RRIRIRPPRLPRPRPRPFTEPRP	0.0282
RRIRFRPPRLPRPRPRPFVAPRP	-0.0081
RRIRPRPPRLPRPRPRPGVDPRP	0.0426
RRIRLRPPRLPRPRPRPPNIPRP	-0.346
RRIRWRPPRLPRPRPRPCPCPRP	-0.273
RRIRARPPRLPRPRPRPGDMPRP	0.374
RRIRKRPPRLPRPRPRPNFWPRP	-0.152
RRIRHRPPRLPRPRPRPCDIPRP	-0.0274
RRIRYRPPRLPRPRPRPPTEPRP	0.183
RRIRMRPPRLPRPRPRPSHPPRP	-0.0222
RRIRKRPPRLPRPRPRPKQSPRP	0.525
RRIRNRPPRLPRPRPRPQQKPRP	0.0694
RRIRDRPPRLPRPRPRPMKCPRP	-0.00962
RRIRTRPPRLPRPRPRPRIGPRP	0.116
RRIRQRPPRLPRPRPRPAKAPRP	-0.101

Sequence	shrunken log2 fold change
RRIRARPPRLPRPRPRPKEIPRP	0.711
RRIRTRPPRLPRPRPRPNPFPRP	-0.216
RRIRTRPPRLPRPRPRPMACPRP	0.0855
RRIRERPPRLPRPRPRPSRVPRP	0.0314
RRIRTRPPRLPRPRPRPHQEPRP	-0.163
RRIRDRPPRLPRPRPRPEVGPRP	0.00896
RRIRSRPPRLPRPRPRPSYTPRP	-0.437
RRIRFRPPRLPRPRPRPFHNPRP	-0.622
RRIRPRPPRLPRPRPRPWATPRP	-0.213
RRIRQRPPRLPRPRPRPLRNPRP	0.121
RRIRCRPPRLPRPRPRPERRPRP	0.0271
RRIRNRPPRLPRPRPRPVSSPRP	-0.00623
RRIRPRPPRLPRPRPRPEYIPRP	-0.0411
RRIRSRPPRLPRPRPRPIPIPRP	0.159
RRIRIRPPRLPRPRPRPPMQPRP	-0.193
RRIRRRPPRLPRPRPRPDSQPRP	0.157
RRIRQRPPRLPRPRPRPLLYPRP	-0.382
RRIRIRPPRLPRPRPRPDSFPRP	0.0771
RRIRPRPPRLPRPRPRPEKVPRP	-0.127
RRIRGRPPRLPRPRPRPQVTPRP	0.0826
RRIRGRPPRLPRPRPRPVSDPRP	1.26
RRIRRRPPRLPRPRPRPYVLPRP	0.00941
RRIRCRPPRLPRPRPRPDQGPRP	-0.143
RRIRNRPPRLPRPRPRPRQKPRP	-0.0544
RRIRSRPPRLPRPRPRPYRYPRP	-0.262

Sequence	shrunken log2 fold change
RRIRPRPPRLPRPRPRPARLPRP	0.00523
RRIRWRPPRLPRPRPRPTYKPRP	-0.467
RRIRTRPPRLPRPRPRPVEFPRP	0.0128
RRIRTRPPRLPRPRPRPFCAPRP	-0.00433
RRIRCRPPRLPRPRPRPCCIPRP	-0.166
RRIRWRPPRLPRPRPRPYEHPRP	-0.12
RRIRVRPPRLPRPRPRPSKLPRP	-0.797
RRIRMRPPRLPRPRPRPRIHPRP	0.0221
RRIRKRPPRLPRPRPRPAERPRP	0.123
RRIRTRPPRLPRPRPRPQKDPRP	-0.455
RRIRQRPPRLPRPRPRPLCRPRP	-0.272
RRIRDRPPRLPRPRPRPEQVPRP	0.015
RRIRLRPPRLPRPRPRPCIMPRP	-0.0711
RRIRPRPPRLPRPRPRPDSAPRP	-0.18
RRIRDRPPRLPRPRPRPVFEPRP	0.187
RRIRPRPPRLPRPRPRPNEPPRP	0.146
RRIRMRPPRLPRPRPRPPGFPRP	0.619
RRIRVRPPRLPRPRPRPADKPRP	-0.0503
RRIRPRPPRLPRPRPRPHLCPRP	0.0476
RRIRERPPRLPRPRPRPQQPPRP	0.166
RRIRWRPPRLPRPRPRPDYIPRP	-0.00749
RRIRFRPPRLPRPRPRPCYLPRP	-0.891
RRIRFRPPRLPRPRPRPDSAPRP	-0.102
RRIRARPPRLPRPRPRPNGNPRP	-0.191
RRIRYRPPRLPRPRPRPLSSPRP	-0.214
